Measurements taken from patent US20220098297A1.

Key:
human IL-17A (human) = human IL-17A (human) (UniProt Q16552); experiment: cell-based or functional assay
human TNF-α (human) = human TNF-α (human) (UniProt P01375); experiment: cell-based or functional assay
Chain of UniProt P01375 (P01375 77-233 limits assumed): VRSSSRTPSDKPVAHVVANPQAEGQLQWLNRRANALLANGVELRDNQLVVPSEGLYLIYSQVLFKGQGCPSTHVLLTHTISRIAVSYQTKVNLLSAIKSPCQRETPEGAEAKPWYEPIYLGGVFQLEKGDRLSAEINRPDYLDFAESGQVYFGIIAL

Chain of UniProt Q16552 (Q16552 24-155 limits assumed): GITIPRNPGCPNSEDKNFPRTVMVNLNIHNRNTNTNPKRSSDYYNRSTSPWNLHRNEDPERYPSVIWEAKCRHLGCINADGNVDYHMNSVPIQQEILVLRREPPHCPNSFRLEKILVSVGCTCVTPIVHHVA

Substance: LY3114062 (bispecific antibody)
- IC50, hIL-6 secretion of commercial RA-FLS cells stimulated with IL-17A and TNF-α (co-neutralization) (human IL-17A (human)): 0.0149 nM
- IC50, hIL-6 secretion of commercial RA-FLS cells stimulated with hIL-17A (human IL-17A (human)): 0.371 nM
- IC50, hIL-6 secretion of commercial RA-FLS cells stimulated with IL-17A and TNF-α (co-neutralization) (human TNF-α (human)): 0.0149 nM
- IC50, hIL-6 secretion of commercial RA-FLS cells stimulated with hTNF-α (human TNF-α (human)): 0.0186 nM
